# Reference: the RNAGym collection of RNA variant scans (doi:10.1073/pnas.2313332121)
# B1: TPR t1 (parent)
# chain: GACCAAUCUGCCCUCAGAGCUCGAGAACAUCUUCGGAUGCAGAGGAGGCAGGCUUCGGUGGCGCGAUAGCGCCAACGUCCUCAACCUCCAAUGCAUCCCACCACAUGAUGAUGCCUGAAGAGCCUUGGUUUUUUG
# Variants of: B1
# Assay: polymerase ribozyme fitness, log enrichment relative to wild type (log ratio); higher = more active; in vitro selection for triplet polymerase activity
# Summary of the method: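 Mutant libraries of both subunits of a heterodimeric triplet polymerase ribozyme were PCR-built, transcribed, and selected once in triplicate, with frozen incubation at −7 °C and capture of gel-excised extended constructs on streptavidin beads before RT-PCR. Illumina sequencing of input and output libraries was filtered to genotypes with ≥10 input reads and ≥1 read per output. Fitness is the logarithm of genotype enrichment over wild-type enrichment, using inverse-variance-weighted replicate averages. The logarithm is base 2.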
row,Variant,polymerase ribozyme fitness (log ratio)
1,GACCAAUCUUCCCUCAGAGCUCGAGAACAUCUUCGGAUGCAGAGGAGGCUGGCUUCGGUGGCGCGAUAGCGCCAACGUCCUCAACCUCCAAUGCAUCCCACCACAUGAUGAUGCCUGAAGAGCCUUGGUUUUUUG,-1.65
2,GACCAAUCUGCCCUCAGAGCUCGAGAACAUCUUCGGAUACAGAGGAGGCAAGCUUCGGUGGCGCGAUAGCGCCAACGUCCUCAACCUCCAAUGCAUCCCACCACAUGAUGAUGCCUGAAGAGCCUUGGUUUUUUG,-2.96
3,GACCAAUCUGCCCUCAGAGCUCGAGAACAUCUUCGAAUGCAGAGGAGGCAGGCUUCGGUGGCGUGAUAGCGACAACGUCCUCAACCUCCAAUGCAUCCCACCACAAGAUGAUGCCUGAAGAGCCUUGGUUUUUUG,-0.401
4,GACGAAUCUGCCCUCAGAGCUCGAGAACAUCUUAGGAUGCAGAGGAGGCAGGCUUCGGUGGCGCGAUAUCGCCAACGUCCUCAACCUCCAAUGCAUUCCACCACAUGAUGAUGACUGAAGAUACUUGGUUUUUUG,-3.31
5,GACCAAUCUGCCCUCAGAGCUCGAGAACAUCUUCGGAUGCUGGGGAGACAGGCUUCGGUGGCACGAUAGCGCCAACGUCCUCAACCUCCGAUGCAUCCCACCAUAUGAUGAUGCCUGAAUAGCCUUGGUUUUUUG,-4.4
6,GACCAACCUGCCCUCAGAGCUCGAGAACAUCUUCGGAUACAGAGGAGGCAGGCUUCGGUGGCGCGAUAGCGCCAACGUCCUCAACCUCCAAUGCAUCCCACCACAUGAUGAUGCCUGAAGAGCUUUGGUUUUUUG,0.776
7,GACCAAUCUGCCCUCAGAGCUCGAGAACAUCUUCGGAUGCAGAGGAGGCAGGCUUCCGUGGCGCGAUAGCGCAAACGUCCUCAACCUCCAAUGCAUCCCACCACAUGAUGAUGCCUCAAGAGCCUUGGUUUUUUG,-4.45
8,GACCAAACCGCCCUCAGAGCUCGAGAACAUCUUCGGAUGCAGAGCAGGCAGGCUUCGGUGGCGCGAUAGUGCCAACGUCCUCAACCUCAAAUGCAUCCCACCACAUGAUGAUGCCUGAAGAGACUUGGUUUUUUG,-2.15
9,GACCAAUCUGCCCUCAGAGCUCGAGAGCAUCUUCGGAUGCAGAGGAGGCAGGCUUCGGUGGCGCGAUAGCGCCAACGUCCUCAACCUCCAAUGCAUCCCACCACAUGAUGAUGCCUGAAGAGCCUUGGUUUUUUU,-2.21
10,GUCCAGUCUGCUCUCAGAGCUCGGGAACAUCUUCGGAUGCAGAGGAGGCAGGCUUAGGUGGCGCGAUAGCGCCAACGUCCUCAACCUCCAAUGCAUUCCACCACAUGAUGAUGCCUGAAGAGCCUUGGUUUUUUG,-3.05
11,GACCAAUCUGCCCUCAGAGCUCGAGAACAUCUUCGGAUGCAGAGGAAGCAGGCUUCGGUGGCGCGAUAGCGCCAACGUCCUCAACCUCCAAUGCAGCCCACCACAUGAUGAUGCCUGAAUAGCCUUGGUUUUUUG,-1.94
12,GACCAAUCUGCCCUCAGAGCUCGAGAACAUCUUCGGAUGCAGAGGAGGCAGGCUUCGGUGGCCCGAUAGCGCCAACGUCCUCAACCUCCAAUGCAUCCCAUCACAUGAUGAUGCCUGAAGAGCCUUGGUUUUUUG,-1.5
13,GACCAAUCUGCCCUCAGAGCUCGAGAACAUCAUCGGAUGUAGAGGAGGCAGGCUUCGGUGGCGCGAUAGCGCCAACGUCCUCAACCUCCAAUGCAUCCCACCACAAGAUGAUGCCUGAAGAGCCUUGGUUUUUUG,-6.43
14,GACCAAUCUGCCCUCAGAGCUCGAGAACAUCUUCGGAUGCAGAGCAGGCAGGCUUCGGUGGCGCUAUAGCACCGACGUCCUCAACCUCCAAUGCAUCCCACCACAUGAUGAUGCCUGAAGAGCCUUGGUUUUUUG,-5.88
15,GACCAAUCGGCCCUCAGAGCUCGAGAACAUCUUCGGAUGCAGAGGAGGCAGGCUUCGGUGUCGCGAUAGCGCCAACGUCCUCAACCUCCAAUGCAUCCCACCACAUGAUGAUGCCUAAAGAGCCUUGGUUUUUUG,1.58
16,GACCAAUCUGCCCUCAGAGCUCGAGAACAUCUUCGGAGGCAGAGGAGGCAGGCGUCGGUGGCGCGAUAGCGCCAACGUCCUCAACCUCCAAUGCAUCCCACCACAUGAUGAUGCCUGAAGAGCCUUGGUUUUUUG,-0.407
17,GACCAAUCUGCCCUCAGAGCUCGAGAACGUCUUCGGAUGCAGAGGAGGCAGGCUUCGGUGGCGCGAUAACGCCAUCGUCCUCAACCUCCAAUGCAUCCCACCAUAUGAUGAGGCCUGAAGAGCCUUGGUUUUUUG,-4.35
18,GACCAAUCUGCCCUCAGAGCGCGAGAACAUCUUCGGAUGCAGAGGAGGCAGGCUUCGGUGGCGCGAUAGCGCCAACGUCCUCAACCACCAAUGCAUCCCACCACAUGAUGAUGCCUGAAGAGCCUUGGUUUUGUU,-1.41
19,GACCAAUCUGCCCUCAGAGCUCGAGAACAUCUUCGGAUGUAGAGGAAGCAGGCUUCGGUGGCGCGAUAGCGCCAACGUCCUCAACCUCCAAUGCAUCCCACCACAUGAUGAUGCCUGGAGAGCCUUGGUUUUUUG,-2.47
20,GACCAAUCUGCCCUCAGAGCUCGAGAACAUCUUCGGAUGCAGAGGAGGCAGACUACGGUGGCGCGAUAGCGCCAACGUCCUCAACCUCCAAUGCAUCCCACCACAUGAUGAUGCCUGAACAGAUUUGGUUUUUUA,1.07
21,GACCAAUCUGCCCUCAGAGCUCGAGAACAUCUUCGGAUGCAGAGGAGGCAGGCUUCGGUGGCGCGAUAGCGCCAACGUCCUCAACCUCCAAUGCAUCGCACCACAUGAUGAUGCCUGAACAGCCUUGGUUUUUUG,-3.19
